Laboratory results: patent publication US6479250 (Amgen, dated 2002)

Key:
rat Eck receptor (rat) = rat Eck receptor (rat) (UniProt D3ZBN3); assay: cell-based or functional assay
[1] = biological target: T1, eck receptor (p130^eck), full length, on LIM 2405 cells or on CHO 19.32 cells transfected with the full … (human, UniProt P29317 24-976); assay: Scatchard analysis of steady-state binding of 125I-rEBP to LIM2405 cells, 0° C.
T1 construct: whole, on cells; also called EBP receptors
Experimental: Nonspecific binding was determined from parallel reactions containing a 50 fold excess of unlabeled EBP.

[2] = biological target: T2, eck receptor extracellular domain (eck-x), soluble, expressed in CHO cells (human, UniProt P29317 24-537); assay: BIAcore, EBP on immobilized eck-x
T2 construct: extracellular domain; The construct ends at Asn534 (numbering of the eck cDNA of Lindberg et al.); Immobilized on BIAcore chips or on CNBr-Sepharose; also called soluble eck receptor; recombinant human Eck extracellular domain
T2 sequence (P29317 24-537): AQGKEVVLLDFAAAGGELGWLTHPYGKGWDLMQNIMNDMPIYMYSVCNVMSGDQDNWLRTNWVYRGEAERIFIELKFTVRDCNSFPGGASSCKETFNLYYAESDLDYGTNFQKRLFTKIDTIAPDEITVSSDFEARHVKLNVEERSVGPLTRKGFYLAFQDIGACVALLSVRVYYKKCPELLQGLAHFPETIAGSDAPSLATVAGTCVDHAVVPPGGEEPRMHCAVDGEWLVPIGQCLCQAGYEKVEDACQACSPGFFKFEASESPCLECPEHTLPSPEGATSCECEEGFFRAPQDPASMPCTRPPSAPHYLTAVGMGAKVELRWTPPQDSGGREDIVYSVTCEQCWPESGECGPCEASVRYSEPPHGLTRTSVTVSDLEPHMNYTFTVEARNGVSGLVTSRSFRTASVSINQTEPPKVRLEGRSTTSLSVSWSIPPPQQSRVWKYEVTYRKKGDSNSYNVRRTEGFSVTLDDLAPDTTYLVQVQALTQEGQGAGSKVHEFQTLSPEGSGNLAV

Sequence of rat Eck receptor (rat) (D3ZBN3 entry or part of it limits assumed, form in doubt): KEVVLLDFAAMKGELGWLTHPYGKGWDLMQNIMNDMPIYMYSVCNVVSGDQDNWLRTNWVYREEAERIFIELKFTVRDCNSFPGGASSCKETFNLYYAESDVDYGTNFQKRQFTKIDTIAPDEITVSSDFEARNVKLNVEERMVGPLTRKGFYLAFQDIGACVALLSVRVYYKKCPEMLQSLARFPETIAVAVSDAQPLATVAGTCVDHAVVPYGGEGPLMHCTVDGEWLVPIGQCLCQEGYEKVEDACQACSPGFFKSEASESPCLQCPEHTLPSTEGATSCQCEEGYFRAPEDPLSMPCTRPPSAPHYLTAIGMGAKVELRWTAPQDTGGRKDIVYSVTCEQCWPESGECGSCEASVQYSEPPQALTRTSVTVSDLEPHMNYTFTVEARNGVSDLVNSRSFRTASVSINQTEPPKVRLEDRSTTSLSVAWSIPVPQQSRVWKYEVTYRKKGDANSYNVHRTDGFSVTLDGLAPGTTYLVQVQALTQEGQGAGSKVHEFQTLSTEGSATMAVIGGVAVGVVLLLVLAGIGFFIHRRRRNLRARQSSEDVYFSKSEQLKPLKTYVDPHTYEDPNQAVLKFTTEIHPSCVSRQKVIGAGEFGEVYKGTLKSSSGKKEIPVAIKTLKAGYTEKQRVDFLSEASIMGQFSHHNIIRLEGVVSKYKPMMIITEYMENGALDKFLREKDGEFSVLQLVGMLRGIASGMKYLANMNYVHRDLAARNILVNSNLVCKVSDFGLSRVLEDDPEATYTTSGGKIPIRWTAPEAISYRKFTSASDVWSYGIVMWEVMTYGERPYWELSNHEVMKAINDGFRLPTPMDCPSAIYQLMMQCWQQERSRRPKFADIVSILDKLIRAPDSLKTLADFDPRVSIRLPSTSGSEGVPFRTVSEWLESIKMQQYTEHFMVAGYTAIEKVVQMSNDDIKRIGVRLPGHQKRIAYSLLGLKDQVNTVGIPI
T1 sequence (P29317 24-976): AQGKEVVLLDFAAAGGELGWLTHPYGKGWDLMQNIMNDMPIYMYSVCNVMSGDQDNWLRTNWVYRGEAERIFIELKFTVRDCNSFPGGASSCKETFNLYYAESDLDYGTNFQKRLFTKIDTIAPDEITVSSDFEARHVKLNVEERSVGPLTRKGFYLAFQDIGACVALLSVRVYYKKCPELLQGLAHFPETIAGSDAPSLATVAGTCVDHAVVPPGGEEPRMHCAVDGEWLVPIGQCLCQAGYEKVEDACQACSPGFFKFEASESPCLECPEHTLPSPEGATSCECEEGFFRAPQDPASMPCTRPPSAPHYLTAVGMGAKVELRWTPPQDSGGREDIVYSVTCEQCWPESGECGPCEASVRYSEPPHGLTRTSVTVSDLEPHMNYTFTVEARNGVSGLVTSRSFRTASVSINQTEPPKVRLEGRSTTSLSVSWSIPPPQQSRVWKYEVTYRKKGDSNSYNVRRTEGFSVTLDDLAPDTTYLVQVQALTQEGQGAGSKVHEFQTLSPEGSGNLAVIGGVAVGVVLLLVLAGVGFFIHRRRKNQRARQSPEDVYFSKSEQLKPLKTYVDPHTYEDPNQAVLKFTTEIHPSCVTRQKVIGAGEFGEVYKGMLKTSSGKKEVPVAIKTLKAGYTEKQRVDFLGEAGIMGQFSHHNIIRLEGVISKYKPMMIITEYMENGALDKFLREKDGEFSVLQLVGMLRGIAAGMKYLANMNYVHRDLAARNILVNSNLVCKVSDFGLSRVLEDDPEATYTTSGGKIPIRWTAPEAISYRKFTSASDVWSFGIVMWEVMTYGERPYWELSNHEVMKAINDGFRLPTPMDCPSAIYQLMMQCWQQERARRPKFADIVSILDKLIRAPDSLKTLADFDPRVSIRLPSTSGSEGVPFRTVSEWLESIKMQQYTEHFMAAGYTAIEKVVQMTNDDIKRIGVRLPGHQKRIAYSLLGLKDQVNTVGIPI

Kd [1]: 28 nM | Kd [2]: ~24 nM
B1: recombinant EBP from CHO cells transfected with the EBP gene (ligand)
chain: DRHTVFWNSSNPKFRNEDYTIHVQLNDYVDIICPHYEDHSVADAAMEQYILYLVEHEEYQLCQPQSKDQVRWQCNRPSAKHGPEKLSEKFQRFTPFTLGKEFKEGHSYYYISKPIHQHEDRCLRLKVTVSGKITHSPQAHVNPQEKRLAA
notes: the entry may begin with a leader at negative positions; also called CHO rEBP; rEBP
ED50 of survival of embryonic rat spinal cord neurons after 9 days in culture (rat Eck receptor (rat)): < 10 µg/mL | enhancement of survival of embryonic rat spinal cord neurons after 9 days in culture (rat Eck receptor (rat)): < 84%
